Laboratory results taken from the nanobody polyreactivity screen of Harvey et al. (2022).

Test: yeast display, Sf9 membrane polyspecificity reagent, FACS + sequencing; frameworks hold sequencing errors
How it was run: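 In a synthetic yeast display library (Saccharomyces cerevisiae BJ5465), nanobody expression was induced with galactose for 36–48 hours. FACS gates were set low and high (top ~1%) using anti-HA fluorescence for expression and streptavidin fluorescence for binding of the Sf9 membrane reagent. Each polyreactivity label is drawn from the gate of origin.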

Row | Sequence | polyreactivity (PSR sort gate)
1 | QVQLVESGGGLVHAGGSLRLSCAASGSIFFQYGMGWYRHAPGKEREYVAAISVSGGSTYYADSVKGRFTISRDNAKNSVYLQMNSLKPEDTAVYYCAADGSTDYVYSPPIDEYDFWGQGTQVTVSS | low polyreactivity
2 | QVQLVESGGGLVQAGGSLRLSCAASGFIFVYNAMGWYRQATGKERELVAAIDYGGGSTTYADSVKVRFTISRDNAKNTVYLQMNSLKPEDTAVYYCAAYYRYLDDIYEYEYWGQGTQVTVSS | low polyreactivity
3 | QVQLVESGGGLVQAGGSLRLSCAASGRIFGVYVMGWYRQAPGKERELVAAISWSGSHTYYADSVKGRFTISRDNAKNTVYLQMNSLKPEDTAVYYCNADSSPEYTGPGLDWYDYWGQGTQVTVSS | low polyreactivity
4 | QVQLVESGGGLVQAGGSLRLSCAASGIIFGYYAMAWYRQAPGTERELVAAITSGASTDYADSVKGRFTISRDNAKNNVYLQMNSLKPEDTAVYYCNADTSASTYTFPFDYWGQGTQVTVSS | low polyreactivity
5 | QVQLVESGGGLVQAGGSLRLSCAASGFTFPYNGMGWYRQAPGKERELVASISWSGASTYYADSVKGRFTISRDNAKNTVYLQMNSLKPEDTAVYYCASDPGYYSWGSSQDDYWGQGTQVTVSS | low polyreactivity
6 | QVQLVESGGGLDQEGVRLRLSCAASGRTFRIYAMGLYRQAPGNERELVAAISSDASTSYADSVKGRFTISRDNPKNTVYFQMNSLKPEATAVYYSAADPGPYFDWGYDFWGQGTQVTVSS | low polyreactivity
7 | QVQRVESGGRLVPPGGSLRLSCAASGRIFYTNAMGCYRQAPGKERELVARITGAGNTYYADSVKGRFTISRDNAKNTVYLQLNSLKPEDTAVYYCTADLYWRGDYWGQGTQVTVSS | high polyreactivity
8 | QVQLVESGGGLVQAGGSLRLSCAASGRIFWYNALGWYRQAPGKEREVVAAISWRGSRTYYADSVKGRFTISRDNAKNTVYLQMNSLKPEETAVYYCAAVIKWTKDDYWGQGTQVTVSS | high polyreactivity
9 | QFQLVESGGGLVQAGGSLRLSCAASGLIFYFYAMGWYRQAPGKEREFVAAISSGGDTYYADSVKGRFTISRDNAKNTVYLQMNSLKPEDNAVYYCAARRYRRGRSDYWGQGTQVTVSS | high polyreactivity
10 | QFQLVESGGGLDQAGGSLRLSCAASGLIFYNYDMGWYRQAPGKERELVAAITLDGGITYYADSVKGRFTISRDNAKNTVYLQLNSLKPEDTAVYYCNRQYRLYGGYPSNLYEYWGQGTQVTVSS | high polyreactivity
11 | QVQLVESGGGLVQAGGSLRLSCAASGRTFGKNAMGWYRQAPGKEREFVAAITSRGGSTYYADSVKGRFTISRDNAKNTVYLQMNSLKPEDTAVYYCNREYKRPSQRTEHYYWGQGTQVTVSS | low polyreactivity
12 | QVQLVESGGGLVQAGGSLRLSCAASRSTFYYYAMGWYRQAPGKERELVATISWSGDSTYADSVKGRFTISRDNAKNTVYLQMNRLKPEDTAVYYCATSGDWWGFRYDYLGQGTQVTVSS | low polyreactivity
13 | QVQLVESGGGLVQAGGSLRLSCAASGSTFWVYGMGWSRQAPGKERELVADITSIGGSTYYADSVKGRFTISRDNAKNTVYLQMNSLKPEDTAVYYCAARETWYPYYWMGYWGQGTQVTVSS | high polyreactivity
14 | QVQLVESGGGLVQAGGSLRLICAASGRSFQYYVMGWYSQAPGKEWELVAAMNRRGTSTYYADSVKGRFTISRDNAKNTVYLQMNSLKPEDTAVYYCAAVDRDYARTTTYDYWGQGTQVSVSS | high polyreactivity
15 | QVQLVESGGGLVQAGGSLRLSCAASGSIFYWNAMGWYRQAPGKDREFVAAISRSGGSTYYADSVKGRFTISRDNGKNTVYLQMYSLKPEDTAVYFCAADVFYFTYDYWGQCTQVTVSS | low polyreactivity
16 | HVQLVESGGGLVQAGGILRLSFAASGFIFCYYTMGWYRQATGKERELVAAINSGGSTNYADSVKGRFTISRDNAKNTVYLQMNSLKPEDTAVYYCAALVWYSGELFYYWGQGTQVTVSS | low polyreactivity
17 | QVQLVESGGGLVQAGGSLRLSCAASGSTFTYYTMAWYRQAPGKERELVAAISWSGGRTYYADSVKGRFTISRDNAKNTVYLQMNSLKPEDTAVYYCAAGPAPGHDSWGQGTQVTVSS | high polyreactivity
18 | QVQLVESGRGLFQSGGSLRLSCAASGRTFVPYAMGWYRQAPGKESELVAAISYSGDSTYYADSVKGRFTISRDNAKNTVYLQMKSLIPEDTAVYYCAKRGPVRNTAYDYWGQGTQVTVSS | low polyreactivity
19 | QVQLVESGGGLVQAGGSLRLSCSASGSTFRQYAMGWYRQAPGKERELVAAITWRGDNTYYADSVKGRFTISRDNAKNTVYLQMNSLKPEDTADYYCGARWSYRLYWGYGYWGQGTQVTVSS | low polyreactivity
20 | QVQLVESGGGLVQAGGSLRLSCAASGLTFVYYAMGWYRQAPGKERELVAAISESGTSTYYADSVKGRFTISRDNAKNTVYLQMNSLKPEDTAVYYCAAKDSYYEMDYWGQGTQVTVSS | high polyreactivity
21 | QVQLVESGGGLVQAGGSLRLSCAASGSTFGYYTMGWYRQAPGKERELVASIDVSGDSTSYADSVKGRLTISRDNAKNTVYLQMNSLKPEDTAVYYCNTGRYPTSPTHNYWGQGTQVTVSS | low polyreactivity
22 | QVQLVESGGGLVQAGGSLRLSCAASGSIFGSYTMGWYRQAPGKERELVAVINWSGDRTYYADSVKGRFTISRDNAKNNVYLHMNSLKPEDTAVYYCAARERAGYSGIRYNYWGQGSQVTVSS | low polyreactivity

Row | Sequence | polyreactivity (PSR sort gate)
23 | QVQLQERGGGLVQAGGSLRLSCAASGSIFQYTLMGWYLQAPGKEREFVAAITDGANTNYADSVKGRFSISRDNAKNTVNLQMNSLKPEETAVYYCATDYGYTDRVTSGFDYWGLGTQVTVSS | low polyreactivity
24 | QVQLVESGGGLVQAGGSLRLSCAASGRIFRYYAMGWYRQAPGKERELVAGITGSGTTNYADSVKGRFTISRDNAKNTVYLQMNSLKPEDTAVYYCNADRYTFWYRYERGYWGQGTQVTVSS | high polyreactivity
25 | QVQLVESGGGLVQAGGSLRLSCAASGITFEYYAMGWYRQAPGKERELVAAISWSGSSTYYADSVKGRFTISRDNAKNTVYLQMNSLKPEDTAVYYCNADSSWWASDDQYDYWGQGTQVTVSS | low polyreactivity
26 | QVQLVESGGGLVQAGGSLRLSCAASGSIFYVYAMGWYRQAPGKVRELVATISSSAGSTYYADSVKGRFTISRDNAKNTVYLQMNSLKPEDTAVYYCIADSFLSWVYRYVYYGSAYWGQGSQVTVSS | low polyreactivity
27 | QVQLVESGGGLVQAGGSLRLSCAASGRTFKSYAMGWYRQAPGKERELVAAISSSGGRTFYADSVKGRFTISRDNAKNTVYLQMNSLKPEDTAVYYCNARYCYRYGGYKPVGGYYWGQGTQVTVSS | high polyreactivity
28 | QVQLVESGGGLVQAGGSLRLSCAASGRIFWGSTMVWYRQAPGKEMELVAAITYRGATTYYADSVKGRFTISRDNAKNTVYLQMNSLKPEDTAVYYCAAEYYYTYGYWGQGTQVTVSS | high polyreactivity
29 | QVQLVESGGGLVQAGGSLRLSCAASGNIIIPYAMGWYRQAPGNEREFVAVMSTRGGSTYYADSVKGRFTISRDNAQNTVYLQMNSLKPEDTAVYYCAARYPYRYDYWGQGTQVTVSS | high polyreactivity
30 | QVQLVESGGGLVQAGGSLRLSCAASGSTFFYNAMGWYRQAPGKERELVAAISKRGDRTYYADSVKGRFTISRDNAKNTVYLQMNSLKPEDTAVYYCAADSYSFSYYIEYDYWGQGTQVTVSS | high polyreactivity
31 | QVQLVESGGGLVQAGGSLRLSCAASGITFSYYAMGWYRPAPGKERELVAAISRTGTSTYYADSVKGRFTISRDNAKNTVYFQMNSLKPEDTAVYYCAAVPRHPYHDKYDYWGQGTQVTVSS | high polyreactivity
32 | QVQLVESGGGLVQAGGSLRLSCAASGRIFSHYDLGWYRQAPGKEREVVAAISSGGITYYADSVKGRFTISRDNAKNTVYLQRNSLKPEDTAVYYCAAVRRRGTTYDYWGQGTQVTVSS | high polyreactivity
33 | QVQLVESVGGLVQAGGSLRLSSAASGYTSNIYAMGWYRQAPGTERELVASIRGRSGSTYYADSVKGRFTISRDNAKNSVYLQMNSLKPEDTAVYYCAGSRPWDFYRFGFDYWGQGTQVTVSS | high polyreactivity
34 | QVQLVESGGGLVQAGGSLRLSCAASGRIFIYYTMGWYRQAPGKERELVAAINSGGSTKYADSVKGRFTISRDNAKNTVYLQMNSLKPEDTAVYYCARRGGFSYYYWGQGTQVTVSS | high polyreactivity
35 | QVQLVESGGGLVQAGGSLRLSCAASGFIFSSHAMGWYRQAPGKERELVAAISRSGGRTYYADSVKGRFTISRDNAKNTVYLQMNSLKPEDTAVYYCAAKRWWQYYWGQGTQVTVSS | high polyreactivity
36 | QVPLVESGGGLVQAGGSLRLSCAASGRNYFKYAMGWYRQAPGKERELVATITWRGSSTYYSDSVKGRFTISRDNAKNTVFLQMNSLKPEDTAVYYCAARYLYTDEYWDKFYYWGQGTQVTVSS | high polyreactivity
37 | QVQLVESGGGIVQAGGSLRLSCAASGLIIQNNAMVWNRQAPGKERELVAAITSDGSTYADSVKGRFTISRDNAKNTVYLQMNSLKPEDTAVYYCNADGITSLPVPALDYWGQGTQVTVSS | low polyreactivity
38 | QVQLVESGGGLVQAGGSLRLSCGASGFIFGSYAMGWYRQAPGKERELVAAISWSGGGTYYADSVKGRFTISRDNAKNTVYLQMNRLNPEDTAVYYCGALTRYKTASGYDYWGQGTQVTVSS | high polyreactivity
39 | QVQLVESGGGLVQAGGSLRLSCAASGRIFDDNTMGWYRQAPGKERELVAVITSGGSTNYADSVKGRFTISRDNAKNTVYLQMNSLKPVDTAVYYCATEPGGYRFDDRAFQYGYWGQGTQVTVSS | low polyreactivity
40 | QVQLVESGGGLVQAGGSLRLSCAASGSIFWNNDMGWYRPAPGKERELVAGISGGSTNYADSVKGRFTISRDNAKNTVYLQMNSLKPEDTAVYYCATERQWESRLEAYDYWGQGTQVTVSS | low polyreactivity
41 | QVQLVESGGGLVQAGGSLRLSCAASGFIFGYNAMGWYRQAAGKERELVAAISYSGGGTYYADSVKGRFTISRDNAKNTVYLQMNSLKPEDTAVYYCAARSWGRRSYDYWGQGTQVTVSS | high polyreactivity
42 | QVQLVESGGGLVQAGGSLRLSCAASGRIFDSYTMGWYRQAPGKERELVAAISRGGGSTYYADSVKGRFTISRDNAKNTVYLQMNSLKPEDTAVYYCAASSYLNSRFKFDYWGQGTQVTVSS | low polyreactivity
43 | QVQLVESGGGLVQAGGSLRLSCAASGFTFFQYAKGWYRQAPGKERELVAAISARGGRTYYADSVKGRFTISRDNAKNTVYLQMNSLKPEDTAVYYCAKRTRTIQGHYDYWGQGTQVTVSS | high polyreactivity
